{"source": "patent US20260226152A1", "about": "(GlaxoSmithKline, published 2026)", "binders": {"B1": {"name": "IL-23 control 1 (antibody, V domains shown)", "VH": "QVQLVQSGAEVKKPGSSVKVSCKASGYTFTDQTIHWMRQAPGQGLEWIGYIYPRDDSPKYNENFKGKVTITADKSTSTAYMELSSLRSEDTAVYYCAIPDRSGYAWFIYWGQGTLVTVSS", "VL": "DIQMTQSPSSLSASVGDRVTITCKASRDVAIAVAWYQQKPGKVPKLLIYWASTRHTGVPSRFSGSGSRTDFTLTISSLQPEDVADYFCHQYSSYPFTFGSGTKLEIK", "notes": "Anti-IL-23 (risankizumab) mAb plus Het-mAb Fc mutations of Heterodimeric bsAbs 1-4, silencing (LAGA) and half-life extending (YTE) mutations; also called anti-IL-23 control 1; risankizumab variable domains"}}, "key": {"Human IL-18 [1]": {"biological_target": "T1, Human IL-18 (human, UniProt Q14116 37-193)", "T1 sequence": "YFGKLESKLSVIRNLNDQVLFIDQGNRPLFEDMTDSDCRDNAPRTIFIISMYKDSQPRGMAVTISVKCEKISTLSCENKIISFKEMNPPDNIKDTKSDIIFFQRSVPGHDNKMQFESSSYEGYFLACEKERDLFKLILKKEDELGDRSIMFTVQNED", "test": "cell-based or functional assay"}, "Cynomolgus monkey IL-18 [2]": {"biological_target": "T2, Cynomolgus monkey IL-18 (Rhesus monkey (identical to cynomolgus …, UniProt Q9BGI5 37-193))", "T2 sequence": "T1 sequence with V11I, S50N, T63A, K79R, F134Y, E141K", "test": "cell-based or functional assay"}, "Human IL-18 [3]": {"biological_target": "T1, Human IL-18", "test": "SPR (Biacore), antibody captured on Protein A/G, cytokine as analyte, 25 C", "method": "(§1) A heterodimeric bsAb, alongside anti-IL-18 and anti-IL-23 common light chain control bispecific antibodies, were assessed for binding to human and cyno IL-18 and IL-23, using the Biacore 8K and T200 (Cytiva) surface plasmon resonance (SPR) instruments. All reagents were generated recombinantly in-house with the exception of Rhesus monkey IL-18 which was purchased from R&D systems (Cat #2548-RM-025/CF). Rhesus and cynomolgus monkey amino acid sequences are identical. Therefore, the protein will be referred to as cynomolgus monkey IL-18.\n(§2) Heterodimeric bsAb, anti-IL-18 and anti-IL-23 common light chain bispecific control molecules were assessed for binding to recombinant human and cynomolgus monkey IL-18 and IL-23 using the Biacore 8K and T200 (Cytiva) SPR instruments. The antibodies were captured onto Protein A/G, which was immobilised onto flow cell 2 of 8 channels (Biacore 8K) or flow cells 2, 3 and 4 (Biacore T200) of a CM5 series S sensor chip by primary amine coupling. The IL-18 or IL-23 analytes were passed over the captured antibodies at varying concentrations between 0.04-25 nM. The association phase was for 240 seconds at 30 μl/min, followed by a dissociation step of up to 1200 seconds. A 0 nM (i.e., buffer alone) injection was used to double reference the binding curves. Regeneration of the chip surface between cycles was carried out using 50 mM NaOH. The assay was run at 25° C. in HBS-EP⁺ buffer. Biacore 8K control software version 3.0 was used to run the experiment. Data was analysed using Biacore 8K Insight evaluation software version 3.0. Biacore T200 control software version 1.0 was used to run the experiment. Data was analysed using Biacore T200 evaluation software version 2.0. Affinities and kinetics were determined using the 1:1 kinetic fit inherent to the software where possible. All affinity values generated using both instruments were combined to determine geometric mean values."}, "Cynomolgus monkey IL-18 [4]": {"biological_target": "T2, Cynomolgus monkey IL-18", "test": "SPR (Biacore), antibody captured on Protein A/G, cytokine as analyte, 25 C", "method": "as §1, §2"}, "Human IL-23 [5]": {"biological_target": "T3, Human IL-23 (human, UniProt Q9NPF7 20-189; P29460 23-328)", "T3 sequence 1": "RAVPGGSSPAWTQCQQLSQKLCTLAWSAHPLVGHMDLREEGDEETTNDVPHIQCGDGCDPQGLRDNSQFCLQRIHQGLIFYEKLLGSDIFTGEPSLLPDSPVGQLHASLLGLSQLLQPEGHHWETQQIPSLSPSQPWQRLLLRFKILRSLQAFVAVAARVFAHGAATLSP", "T3 sequence 2": "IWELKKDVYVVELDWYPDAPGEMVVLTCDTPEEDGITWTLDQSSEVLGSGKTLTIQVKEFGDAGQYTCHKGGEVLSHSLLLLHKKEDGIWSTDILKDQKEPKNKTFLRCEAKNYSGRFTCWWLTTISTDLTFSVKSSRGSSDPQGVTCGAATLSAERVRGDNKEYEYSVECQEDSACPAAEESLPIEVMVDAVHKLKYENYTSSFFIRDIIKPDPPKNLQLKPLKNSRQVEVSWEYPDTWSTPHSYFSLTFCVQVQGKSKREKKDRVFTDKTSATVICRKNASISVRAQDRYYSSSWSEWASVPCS", "test": "cell-based or functional assay"}, "Cynomolgus monkey IL-23": {"biological_target": "T4, Cynomolgus monkey IL-23 (cynomolgus monkey)", "T4 construct": "also called Cyno IL-23", "test": "SPR (Biacore 8K/T200), antibody captured on Protein A/G, cytokine as analyte, 25 C, geometric mean of n=3-5", "method": "as §1, §2"}, "Human IL-23 [6]": {"biological_target": "T3, Human IL-23", "test": "SPR (Biacore 8K/T200), antibody captured on Protein A/G, cytokine as analyte, 25 C, geometric mean of n=3-5", "method": "as §1, §2"}, "Human IL-23 [7]": {"biological_target": "T3, Human IL-23", "test": "cell-based or functional assay", "remark": "listed apart in the source"}, "Human IL-23 [8]": {"biological_target": "T3, Human IL-23", "test": "cell-based or functional assay", "remark": "listed apart in the source"}}, "note": "Where a chain is given by its changes, count along the chain named."}
{"binder": "B1", "values": [{"measurement": "pIC50 (GeoMean), neutralisation of human IL-18-induced IFNγ secretion by KG-1 cells", "setting": "Human IL-18 [1]", "result": "< 8.48"}, {"measurement": "pIC50 (GeoMean), neutralisation of cynomolgus IL-18-induced IFNγ secretion by KG-1 cells", "setting": "Cynomolgus monkey IL-18 [2]", "result": "< 8.48"}, {"measurement": "binding result", "setting": "Human IL-18 [3]", "result": "no binding (tested: 0.04-25 nM analyte)"}, {"measurement": "binding result", "setting": "Cynomolgus monkey IL-18 [4]", "result": "no binding (tested: 0.04-25 nM analyte)"}, {"measurement": "IC50 pM, inhibition of human IL-23-induced mouse IL-17A secretion in mouse splenocytes", "setting": "Human IL-23 [5]", "result": 41.7, "unit": "pM"}, {"measurement": "pIC50 (M), inhibition of human IL-23-induced mouse IL-17A secretion in mouse splenocytes", "setting": "Human IL-23 [5]", "result": 10.4}, {"measurement": "Kd", "setting": "Cynomolgus monkey IL-23", "result": 0.204, "unit": "nM"}, {"measurement": "Kd", "setting": "Human IL-23 [6]", "result": 0.348, "unit": "nM"}, {"measurement": "IC50, inhibition of IL-23-induced pSTAT3 in T cells of human whole blood", "setting": "Human IL-23 [7]", "result": 163, "unit": "pM"}, {"measurement": "pIC50, inhibition of IL-23-induced pSTAT3 in T cells of human whole blood", "setting": "Human IL-23 [7]", "result": 9.8}, {"measurement": "IC50 pM (Geomean), neutralisation of human IL-23-induced pSTAT3 in DB cells (MSD)", "setting": "Human IL-23 [8]", "result": 16.6, "unit": "pM"}, {"measurement": "pIC50 (Geomean), neutralisation of human IL-23-induced pSTAT3 in DB cells (MSD)", "setting": "Human IL-23 [8]", "result": 10.8}]}
